Reference: article PMC11220700, “Activation and Purification of ß‐Glucocerebrosidase by Exploiting its Transporter LIMP‐2 – Implications for Novel Treatment Strategies in Gaucher's and Parkinson's Disease” (Advanced Science, 2024)

System: wt GCase in HEK 293F supernatant
Assay: GCase activity in supernatant of HEK 293F cells co‐expressing soluble LIMP‐2
Type: cell-based, human
Settings: co‐expression with wt GCase, 0‐72 h after transfection, n = 3
Description: HEK 293F cells (ThermoFisher Scientific Inc., Waltham, MA, United States, #R79007) were cultivated in FreeStyle 293 expression medium (ThermoFisher Scientific Inc., Waltham, MA, United States, #12 338 018) in vented flat‐bottom Erlenmeyer flasks (ThermoFisher Scientific Inc., Waltham, MA, United States, #4115‐0125, #4115‐0250, #4115‐0500, #4115‐1000, #4115‐2000) on a MaxQ CO2 Plus orbital shaker (ThermoFisher Scientific Inc., Waltham, MA, United States, #88 881 102) at 125 rpm, 37 °C and 8% CO2. Regularly, the cell count was determined using a Cellometer Auto T4 Plus cell counter (Nexcelom Biocience LLC, Lawrence, Massachusetts, United States). […] For seeding, cells were counted and the desired cell number was transferred to 50 mL tubes. […]
Activity of GCase‐containing samples (recombinant protein, cell lysate, LE fractions, conditioned culture medium) was measured using the synthetic substrate 4‐methylumbelliferyl‐β‐D‐glucopyranoside (4MU, Merck Millipore, Billerica, MA, United States, #M3633). […] GCase activity was quantified via fluorescence of released 4‐methylumbelliferone (endpoint measurement) using an Infinite 200 Pro (TECAN, Männedorf, Switzerland), SpectraMax Gemini (Molecular Devices, San José, CA, United States) or ClarioStar (BMG LABTECH, Ortenberg, Germany) multiplate reader (λ ex: 365 nm; λ em: 445 nm). […]

B1: sLIMP‐2: secreted LIMP‐2 ectodomain, amino acids 36–431, N‐terminal IgK leader sequence, C‐terminal TEV‐cleavable 10xHis tag (protein)
chain: SIEKKIVLRNGTEAFDSWEKPPLPVYTQFYFFNVTNPEEILRGETPRVEEVGPYTYRELRNKANIQFGDNGTTISAVSNKAYVFERDQSVGDPKIDLIRTLNIPVLTVIEWSQVHFLREIIEAMLKAYQQKLFVTHTVDELLWGYKDEILSLIHVFRPDISPYFGLFYEKNGTNDGDYVFLTGEDSYLNFTKIVEWNGKTSLDWWITDKCNMINGTDGDSFHPLITKDEVLYVFPSDFCRSVYITFSDYESVQGLPAFRYKVPAEILANTSDNAGFCIPEGNCLGSGVLNVSICKNGAPIIMSFPHFYQADERFVSAIEGMHPNQEDHETFVDINPLTGIILKAAKRFQINIYVKKLDDFVETGDIRTMVFPVMYLNESVHIDKETASRLKSMINT
modifications: left off: Igκ leader sequence, N-terminal, state not stated | 10xHis (TEV-cleavable), C-terminal, kept
- GCase activity in supernatant over time: GCase activity is higher and stable over the course of the measurements
